Assay [1] addresses Noregen, recombinant norrin-derived growth factor (human) (UniProt Q00604). Nature of the assay: AUC.
Assay [2] has the same target. The experiment in a line: intact LC/ES-MS.

Chain of Noregen, recombinant norrin-derived growth factor (Q00604 25-133): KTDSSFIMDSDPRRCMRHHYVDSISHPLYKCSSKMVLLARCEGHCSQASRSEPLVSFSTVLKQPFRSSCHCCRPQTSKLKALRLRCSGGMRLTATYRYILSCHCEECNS

A word on the stoichiometry N: it is a count of units in the complex or per binding partner. As to “Noregen, recombinant norrin-derived growth factor (from UniProt Q00604 25-133) (ligand)”, in assay [1], the percent of total content in the dimer peak stood at 99.9% and the stoichiometry N amounted to 2. In assay [2], the percent present as dimer is 98% and the stoichiometry N turned out to be 2.
